T1: Human CD19-his protein (human, UniProt P15391 20-291)
T1 construct: bought protein; also called human CD19 protein; recombinant human CD19-His; not shown: His tag
T1 sequence (looked up): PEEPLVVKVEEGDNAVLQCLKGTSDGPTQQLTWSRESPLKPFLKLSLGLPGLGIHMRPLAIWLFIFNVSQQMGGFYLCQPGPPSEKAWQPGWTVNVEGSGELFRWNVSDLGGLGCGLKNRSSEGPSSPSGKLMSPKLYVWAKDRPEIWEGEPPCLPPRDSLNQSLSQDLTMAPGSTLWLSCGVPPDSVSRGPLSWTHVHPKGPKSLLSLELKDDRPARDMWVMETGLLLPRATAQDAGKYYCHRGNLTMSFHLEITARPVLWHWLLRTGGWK

T2: murine CD19 protein (murine, UniProt P25918 17-287, limits assumed)
T2 construct: bought protein; also called commercial murine CD19
T2 sequence (looked up): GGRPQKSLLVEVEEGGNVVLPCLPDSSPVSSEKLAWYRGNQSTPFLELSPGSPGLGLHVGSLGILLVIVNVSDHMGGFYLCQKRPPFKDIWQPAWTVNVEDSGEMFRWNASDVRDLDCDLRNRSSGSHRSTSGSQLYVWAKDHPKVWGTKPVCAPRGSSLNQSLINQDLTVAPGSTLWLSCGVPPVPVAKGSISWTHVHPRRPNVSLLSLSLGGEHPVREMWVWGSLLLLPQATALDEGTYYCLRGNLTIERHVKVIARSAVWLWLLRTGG

T3: human CD19 exon1-3-his protein (human, UniProt P15391 20-186, limits assumed)
T3 construct: made in HEK293E cells; also called membrane-distal end; not shown: His tag
T3 sequence (looked up): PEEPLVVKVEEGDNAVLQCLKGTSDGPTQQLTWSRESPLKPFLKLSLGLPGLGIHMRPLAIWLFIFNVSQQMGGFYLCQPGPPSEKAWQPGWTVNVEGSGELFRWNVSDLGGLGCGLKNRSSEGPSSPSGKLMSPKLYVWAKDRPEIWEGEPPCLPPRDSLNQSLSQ

T4: Human CD19-his protein (human, UniProt P15391 20-291)
T4 construct: bought protein; also called recombinant human CD19-His; CD19 full-length protein; not shown: His tag
T4 sequence (looked up): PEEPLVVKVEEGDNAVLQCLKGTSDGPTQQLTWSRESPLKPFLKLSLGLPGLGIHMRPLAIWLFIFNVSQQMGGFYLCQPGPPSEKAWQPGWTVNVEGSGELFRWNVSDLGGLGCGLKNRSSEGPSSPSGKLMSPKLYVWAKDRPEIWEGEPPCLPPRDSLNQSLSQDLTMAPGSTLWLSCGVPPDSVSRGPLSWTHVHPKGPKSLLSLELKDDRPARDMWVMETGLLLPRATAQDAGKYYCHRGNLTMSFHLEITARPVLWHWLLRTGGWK

T5: human CD19 exon1-3-His tag protein (human, UniProt P15391 20-186, limits assumed)
T5 construct: membrane-distal part of the extracellular region, made in HEK293E cells; not shown: His tag
T5 sequence (looked up): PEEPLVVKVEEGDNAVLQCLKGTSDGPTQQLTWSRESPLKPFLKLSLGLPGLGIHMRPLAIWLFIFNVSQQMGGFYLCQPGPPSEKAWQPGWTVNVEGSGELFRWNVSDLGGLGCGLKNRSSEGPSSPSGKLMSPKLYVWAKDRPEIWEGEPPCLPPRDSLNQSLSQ


How the values were obtained:
Human CD19-his protein [1] = molecular target: T1, Human CD19-his protein; test: ELISA, antibody at 100 nM
Human CD19-his protein [2] = molecular target: T1, Human CD19-his protein; test: ELISA, antibody at 1.00 nM
murine CD19 protein = molecular target: T2, murine CD19 protein; test: ELISA, coated murine CD19
Method in brief: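 Plates coated overnight at 4° C with recombinant murine or monkey CD19 and blocked with 2% BSA. Chimeric antibodies, serially diluted from 100 nM, bound for 2 h at 37° C. TMB development for 10 min with OD450 read-out.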

[3] = molecular target: T3, human CD19 exon1-3-his protein; test: ELISA, coated at 2 ug/mL
Human CD19-his protein [4] = molecular target: T1, Human CD19-his protein; test: ELISA, antibody at 0.10 nM
Human CD19-his protein [5] = molecular target: T1, Human CD19-his protein; test: ELISA, antibody at 0.0001 nM
Human CD19-his protein [6] = molecular target: T1, Human CD19-his protein; test: ELISA, antibody at 0.001 nM
Human CD19-his protein [7] = molecular target: T1, Human CD19-his protein; test: ELISA, antibody at 10 nM
Human CD19-his protein [8] = molecular target: T1, Human CD19-his protein; test: ELISA, antibody at 0.01 nM
Human CD19-his protein [9] = molecular target: T4, Human CD19-his protein; test: SPR Biacore, Ab captured on Protein A, CD19-His analyte
Protocol: A sample buffer and a running buffer were HBS-EP+ (10 mM HEPES, 150 mM NaCl, 3 mM EDTA and 0.05% surfactant P20) (GE Healthcare; BR-1006-69). The flow-through cell was set to 25° C. The sample block was set to 16° C. Both were pretreated with the running buffer. In each cycle, an antibody to be detected was first captured with a Protein A chip, and then a single concentration of CD19 antigen protein was injected. The binding and dissociation processes of the antibody and the antigen protein were recorded, and finally Glycine pH 1.5 (GE Healthcare; BR-1003-54) was used to complete chip regeneration. The binding was measured by injecting different concentrations of recombinant human CD19-His proteins in a solution for 240 s with a flow rate of 30 μl/min. The concentration started from 200 nM (see the detailed results for the actual concentration in the test) and was diluted at 1:1, making a total of 5 concentrations. The dissociation phase was monitored for up to 600 s and was triggered by switching from sample solution to running buffer. The surface was regenerated by washing with a 10 mM glycine solution (pH 1.5) for 30 s at a flow rate of 30 μl/min. Bulk refractive index difference was corrected by subtracting the response obtained from the goat anti-human Fc surface. Blank injection was also subtracted (=double reference). For calculation of apparent KD and other kinetic parameters, Langmuir 1:1 model was used.

[10] = molecular target: T5, human CD19 exon1-3-His tag protein; test: ELISA on coated human CD19 exon 1-3-His
Protocol: Human CD19-his protein (purchased from ACROBiosystems, catalog number: CD9-H52H2) was diluted with PBS to a final concentration of 4 μg/mL, and then added to a 96-well ELISA plate at 100 μl/well. The plate was sealed with a plastic film and incubated overnight at 4° C., the plate was washed 2 times with PBS the next day, and then a blocking solution [PBS+2% (w/w) BSA] was added for blocking at room temperature for 2 h. The blocking solution was poured off, and 100 nM gradiently diluted CD19 chimeric antibody or control antibody was added at 50 μl/well. After incubation at 37° C. for 2 h, the plate was washed 3 times with PBS. […] TMB substrate was added at 50 μl/well, and incubated at room temperature for 10 min, and then a stop solution (1.0 N HCl) was added at 50 μl/well. The OD450 nm values were read by an ELISA microplate reader (Multimode Plate Reader, EnSight, purchased from Perkin Elmer).
CD19 protein contains 4 exons in the extracellular region, in which exons 1-3 are located at the membrane-distal end and exon 4 is located at the membrane-proximal end. […] To identify the distribution of antigen binding epitopes of the chimeric antibodies, human CD19 exon 1-3-His (membrane-distal end) was used to coat at 2 μg/mL according to the ELISA method in example 5.1.

OD450 (Human CD19-his protein [1])	OD450 (Human CD19-his protein [2])	binding result (murine CD19 protein)	binding result [3]	OD450 (Human CD19-his protein [4])	OD450 (Human CD19-his protein [5])	OD450 (Human CD19-his protein [6])	OD450 (Human CD19-his protein [7])	OD450 (Human CD19-his protein [8])	Kd (Human CD19-his protein [9])	koff (Human CD19-his protein [9])	kon (Human CD19-his protein [9])	binding result [10]	EC50 (read off the curve) [10]	Binder
0.94	0.36	no binding	no binding	0.11	0.05	0.05	0.6	0.06						F3.83.9 (antibody, human IgG1, V domains shown, human-murine chimeric antibody, human IgG1) VH: DVQLQESGPGLVKPSQSLSLTCSVTGYSITSGYYWNWIRQFPGNKLEWMGYISYDGGNNYNPSLKNRISITRDTSKNQFFLKLNSVTTEDTATYFCAREDYSNWYFDVWGTGTTVTVSS VL: DIVLTQSPASLAVSLGQRATISCRASQSVSKSSYSYMHWYQQKPGQSPKLLIKYASILKSGVPARFSGSGSGTDFTLNIHPVEEEDTATYYCQHSWEIPWTFGGGTKLEIK
									0.294 nM	6.51e-05 s⁻¹	221000 M⁻¹ s⁻¹	no binding (tested: 100 nM)		F4.272.13 (antibody, human IgG1, V domains shown, human-murine chimeric antibody, human IgG1 constant) VH: QVQLKESGPGLVAPSQSLSITCTVSGFSLTDYGVSWIRQPPGKGLEWLGVIWGSETTFYNSALKSRLSISKDNSKSQLFLQMNSLQADDTAIYYCAKHHYYGGSFSMDYWGQGTSVTVSS VL: DIQMTQTTSSLSASLGDRVTISCRASQDINNYLNWYQQKPDGTVKFLIYYTSRLHSGVPSRFSGSGSGTDYSLTISDLEQEDIATYFCQQGNTLPYTFGGGTKLEIK
									5.32 nM	0.00119 s⁻¹	224000 M⁻¹ s⁻¹		~0.2 nM	F3.148.10 (antibody, human IgG1, V domains shown, human-murine chimeric antibody, human IgG1 constant) VH: EVQLQQSGAELVRPGSSVTMSCKTSGYTFTNYGINWVKQRPGQGLEWIGYIFIGNDYTEYNEKFKGKATLTSDTSSSTAYMQLSSLTSEDSAIYFCTRFYSNYYGMDPWGQGTSVTVSS VL: not shown
									5.67 nM	0.00108 s⁻¹	190000 M⁻¹ s⁻¹		~0.1 nM	F3.109.1 (antibody, human IgG1, V domains shown, human-murine chimeric antibody, human IgG1 constant) VH: EVQLQQSGAELVRPGSSVKMSCKTSGYTFTSYGINWVKQRPGQGLEWIGYIYIGNDYTEFNEKFKGKATLTSDTSSSTAYMQLSSLTSEDSAIYFCARFYSNSDPMDYWGHGTSVTVSS VL: not shown
									18.7 nM	0.000879 s⁻¹	47100 M⁻¹ s⁻¹		~0.3 nM	F3.74.4 (antibody, human IgG1, V domains shown, human-murine chimeric antibody, human IgG1 constant) VH: QVQLQQSGAELVRPGASVTLSCKASGYTFTDYEMHWVKQTPVHGLEWIGGIAPETGLTTYNQKFEDKAILTADKSSRTAYMELRSLTSEDSAVYFCNPNNYGLWGTGTTVTVSS VL: not shown
									6.03 nM	0.000465 s⁻¹	77000 M⁻¹ s⁻¹	no binding (tested: 100 nM)		F3.114.12 (antibody, human IgG1, V domains shown, human-murine chimeric antibody, human IgG1 constant) VH: DVQLQESGPGLVKPSQSLSLTCSVTGYSITSGYDWNWIRQFPGNKLEWMGYISYDGKNNYNPSLRNRISITRDTSKNQFFLKLNSVTTEDTATYYCARRDLRGYFDVWGTGTTVTVSS VL: DIVLTQSPATLSVTPGDRVSLSCRASQSISNYLHWYQQKSHESPRLLIKYASLSISGIPSRFSGSGSGTDFTLSINSVETEDFGVYFCQQSNSWPLTFGAGTKLELK
0.61	0.24	no binding	no binding	0.08	0.05	0.05	0.46	0.05						F3.114.12 (antibody, human IgG1, V domains shown, human-murine chimeric antibody, human IgG1) VH: DVQLQESGPGLVKPSQSLSLTCSVTGYSITSGYDWNWIRQFPGNKLEWMGYISYDGKNNYNPSLRNRISITRDTSKNQFFLKLNSVTTEDTATYYCARRDLRGYFDVWGTGTTVTVSS VL: DIVLTQSPATLSVTPGDRVSLSCRASQSISNYLHWYQQKSHESPRLLIKYASLSISGIPSRFSGSGSGTDFTLSINSVETEDFGVYFCQQSNSWPLTFGAGTKLELK
0.7	0.2	no binding	no binding	0.07	0.05	0.05	0.46	0.05						F3.126.15 (antibody, human IgG1, V domains shown, human-murine chimeric antibody, human IgG1) VH: QVQLQQPGAELVMPGASVKLSCKASGYTFTSYWMHWVKQRPGQGLEWIGEIDPSDSYTTYNQNFKGKATLTVDISTSTAYIQLSNLTSEDSAVYYCARLTGNYIHYWGQGTTLTVSS VL: DIVMTQSHKFMSTSVGDRVSITCKASQDVSPAVAWYQQRPGQCPKLLIFSSSYRSTGVPDRFTGSGSGTDFTFTISSVQAEDLAVYYCQQHYSLPLTFGAGTKLELK
									1.84 nM	0.000151 s⁻¹	82100 M⁻¹ s⁻¹	no binding (tested: 100 nM)		F5.10.6 (antibody, human IgG1, V domains shown, human-murine chimeric antibody, human IgG1 constant) VH: DVQLQESGPGLVKPSQSLSLTCSVTDYSITSGYYWTWIRQFPGNKLEWMGYISYDGSTNYNPSLKNRFSITRDTSKNQFFLKLNSVIIEDTATYYCARDRMSTTWYFDVWGTGTTVTVSS VL: DIVLTQSPASLAVSLGQRATISCRASESVDNYGISFMHWYQQKPGQPPKLLIYRASKTESGIPARFSGSGSRTDFTLTINPVETDDVATYYCQQSNKYPRTFGGGTKVEIK

— US20250042994A1 (HAINAN SIMCERE ZAIMING PHARMACEUTICAL, published 2025)
